From article PMC5922973, “Topoisomerase VI senses and exploits both DNA crossings and bends to facilitate strand passage” (eLife, 2018) come the findings set out here.

Residue numbers refer to the chain shown, from its start.

In series [1] the target is T1, topo VI KGRR-EEE (Methanosarcina mazei, UniProt Q8PUB7;Q8PUB8 1-369;1-621, K186E;R188E;R189E).
T1 sequence 1: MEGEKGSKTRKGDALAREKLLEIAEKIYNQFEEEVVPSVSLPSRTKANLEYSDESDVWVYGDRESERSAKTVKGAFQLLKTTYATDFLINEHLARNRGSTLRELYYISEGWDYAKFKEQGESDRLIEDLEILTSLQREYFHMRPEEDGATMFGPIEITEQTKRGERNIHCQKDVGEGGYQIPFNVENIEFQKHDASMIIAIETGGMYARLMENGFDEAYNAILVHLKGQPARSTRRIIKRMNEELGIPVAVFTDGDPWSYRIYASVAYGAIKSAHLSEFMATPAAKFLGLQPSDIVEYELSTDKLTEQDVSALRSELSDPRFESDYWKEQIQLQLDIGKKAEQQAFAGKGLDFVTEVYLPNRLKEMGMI
T1 sequence 2: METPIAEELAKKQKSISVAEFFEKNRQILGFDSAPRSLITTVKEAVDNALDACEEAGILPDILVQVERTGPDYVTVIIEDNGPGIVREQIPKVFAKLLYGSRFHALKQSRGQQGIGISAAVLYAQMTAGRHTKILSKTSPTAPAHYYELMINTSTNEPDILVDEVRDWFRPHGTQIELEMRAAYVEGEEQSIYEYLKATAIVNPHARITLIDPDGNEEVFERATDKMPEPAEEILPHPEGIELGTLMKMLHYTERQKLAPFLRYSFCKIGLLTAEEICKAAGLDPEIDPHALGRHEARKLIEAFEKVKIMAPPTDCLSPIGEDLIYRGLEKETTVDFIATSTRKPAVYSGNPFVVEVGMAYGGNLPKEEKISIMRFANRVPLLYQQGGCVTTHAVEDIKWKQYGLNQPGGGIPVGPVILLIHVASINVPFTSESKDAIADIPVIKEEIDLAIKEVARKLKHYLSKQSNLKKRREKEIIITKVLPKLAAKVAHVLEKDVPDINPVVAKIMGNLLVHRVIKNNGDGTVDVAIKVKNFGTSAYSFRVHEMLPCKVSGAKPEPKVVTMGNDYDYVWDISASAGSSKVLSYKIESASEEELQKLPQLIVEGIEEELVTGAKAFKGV
Kind of series: fluorescence anisotropy; Fluorescence anisotropy, 20 nM FAM-labelled DNA, topo VI 0 and 3.9-4000 nM, no nucleotide; buffer, salt, pH and temperature not given in supplied text. Conditions: protein: recombinant; tags: N-terminal His6-TEV on Top6B, removed; chain copies: 2;2; label: 5'-FAM strand 1; blunt. (Polarisation of emitted light reports the rotation of a fluorescent probe.)

The target of another series is T2, topo VI H2TH-EEE (Methanosarcina mazei, UniProt Q8PUB7;Q8PUB8 1-369;1-621, R263E;K268E;K308E).
T2 sequence 1: T1 sequence 1
T2 sequence 2: T1 sequence 2 with E186K, E188R, E189R, R263E, K268E, K308E
The description is as above. The settings on record: protein: recombinant, tags: N-terminal His6-TEV on Top6B, removed, chain copies: 2;2.

For series [2], the target named is T1, topo VI KGRR-EEE. The experiment in a line: fluorescence anisotropy; FA: 20 nM probe, 50 mM K-glutamate, 20 mM HEPES-KOH pH 7.5, 10 mM MgCl2, 5% glycerol, 1 mM TCEP, 0.1 mg/mL BSA; incubated on ice, read at ambient temperature; competition with 100 nM enzyme. The settings on record: protein: recombinant; tags: N-terminal His6-TEV on Top6B, removed; chain copies: 2;2; label: 5'-FAM strand 1; blunt.

Another series addresses T3, topo VI KGRR-AAA (Methanosarcina mazei, UniProt Q8PUB7;Q8PUB8 1-369;1-621, K186A;R188A;R189A).
T3 sequence 1: T1 sequence 1
T3 sequence 2: T1 sequence 2 with E186A, E188A, E189A
The description is as above. The settings on record: protein: recombinant; tags: N-terminal His6-TEV on Top6B, removed; chain copies: 2;2; label: 5'-FAM strand 1; blunt.

B1: 60 bp duplex (dsDNA)
DNA 1: CGCTTCAATAATATTGAAAAAGGAAGAGTATGAGTATTCAACATTTCCGTGTCGCCCTTC
DNA 2: GAAGGGCGACACGGAAATGTTGAATACTCATACTCTTCCTTTTTCAATATTATTGAAGCG
Take B1: the Kd (usually the concentration at which binding is half-saturated) is 119 ± 3 nM with topo VI KGRR-EEE [1], 119 ± 3 nM in the series with topo VI KGRR-EEE [2] and 99 ± 2 nM with topo VI KGRR-AAA. Further, the “apparent K (half saturation)” value in the series with topo VI H2TH-EEE (label: 5'-FAM strand 1, blunt) came out at 109 ± 3 nM.

B2: 70 bp duplex (dsDNA)
DNA 1: CCAAATGCTTCAATAATATTGAAAAAGGAAGAGTATGAGTATTCAACATTTCCGTGTCGCCCTTATTCCC
DNA 2: GGGAATAAGGGCGACACGGAAATGTTGAATACTCATACTCTTCCTTTTTCAATATTATTGAAGCATTTGG
On to B2, for which the Kd with topo VI KGRR-EEE [1] came to 193 ± 4 nM. In addition, in the series with topo VI H2TH-EEE (label: 5'-FAM strand 1, blunt), the “apparent K (half saturation)” value came out at 103 ± 3 nM.

B3: 40 bp duplex (dsDNA)
DNA 1: CTATTGAAAAAGGAAGAGTATGAGTATTCAACATTTCCGC
DNA 2: GCGGAAATGTTGAATACTCATACTCTTCCTTTTTCAATAG
Take B3: the Kd with topo VI KGRR-EEE [1] came out at 75 ± 4 nM.

B4: 16 x 20 bp stacked junction (structured_DNA)
DNA 1: CGAATACTCAGCTCAACCGAAAGGTTGAGCCTTCGCTCGAAAGAGCGAAGTACTCTTCCG
DNA 2: CGGAAGAGTATGAGTATTCG
B4: the Kd with topo VI H2TH-EEE (label: 5'-FAM strand 2, four-way Holliday junction, stacked-X, two GAAA-capped arms) is 90 ± 4 nM.

B5: 20 bp duplex (dsDNA)
DNA 1: CGGAAGAGTATGAGTATTCG
DNA 2: CGAATACTCATACTCTTCCG
With B5, the dissociation constant Kd with topo VI KGRR-EEE [1] is 338 ± 15 nM; in the series with topo VI H2TH-EEE (label: 5'-FAM strand 1, blunt), 222 ± 11 nM.

B6: 30 bp duplex (dsDNA)
DNA 1: CAAAAAGGAAGAGTATGAGTATTCAACATC
DNA 2: GATGTTGAATACTCATACTCTTCCTTTTTG
B6: in the series with topo VI KGRR-EEE [1], the Kd was found to be 82 ± 7 nM.
